# Results from patent publication EP4722228A1 (The University of Tokyo, dated 2024).
# Bridge positions count the residues as written; N and C are the ends. Square brackets hold non-standard residues; d marks the D form. Ends that are not written are not given here.
# Legend:
# [1] = biological target: Fc-tagged mouse MuSK extracellular domain (mouse); test: SPR (Biacore T200), Fc-tagged mouse MuSK on Protein G/A chip, 1:1 fit
# [2] = biological target: T1, Recombinant Rat MuSK Fc Chimera Protein (catalog number: 9847-MK-050, R&D Systems) (rat, UniProt Q62838 22-494); test: SPR (Biacore T200), Fc-tagged rat MuSK on Protein G/A chip, 1:1 fit
# T1 construct: Bought reagent; also called Fc-tagged rat MuSK; not shown: Fc protein of the bought chimera
# T1 sequence (looked up): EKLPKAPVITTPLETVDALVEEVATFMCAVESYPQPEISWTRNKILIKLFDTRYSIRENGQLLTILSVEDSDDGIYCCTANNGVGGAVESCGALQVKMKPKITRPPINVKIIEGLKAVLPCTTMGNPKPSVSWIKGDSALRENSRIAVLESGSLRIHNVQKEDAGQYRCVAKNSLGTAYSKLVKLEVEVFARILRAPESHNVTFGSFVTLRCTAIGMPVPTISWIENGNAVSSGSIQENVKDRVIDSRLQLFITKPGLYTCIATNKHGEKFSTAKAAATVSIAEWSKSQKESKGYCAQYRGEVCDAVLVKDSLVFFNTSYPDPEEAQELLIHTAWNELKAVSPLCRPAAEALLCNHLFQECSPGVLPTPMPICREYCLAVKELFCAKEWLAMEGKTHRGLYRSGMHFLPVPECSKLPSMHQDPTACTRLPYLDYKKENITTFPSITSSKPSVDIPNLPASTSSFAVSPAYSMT
# Sequence of Fc-tagged mouse MuSK extracellular domain (mouse) (chain, as listed by the source limits assumed): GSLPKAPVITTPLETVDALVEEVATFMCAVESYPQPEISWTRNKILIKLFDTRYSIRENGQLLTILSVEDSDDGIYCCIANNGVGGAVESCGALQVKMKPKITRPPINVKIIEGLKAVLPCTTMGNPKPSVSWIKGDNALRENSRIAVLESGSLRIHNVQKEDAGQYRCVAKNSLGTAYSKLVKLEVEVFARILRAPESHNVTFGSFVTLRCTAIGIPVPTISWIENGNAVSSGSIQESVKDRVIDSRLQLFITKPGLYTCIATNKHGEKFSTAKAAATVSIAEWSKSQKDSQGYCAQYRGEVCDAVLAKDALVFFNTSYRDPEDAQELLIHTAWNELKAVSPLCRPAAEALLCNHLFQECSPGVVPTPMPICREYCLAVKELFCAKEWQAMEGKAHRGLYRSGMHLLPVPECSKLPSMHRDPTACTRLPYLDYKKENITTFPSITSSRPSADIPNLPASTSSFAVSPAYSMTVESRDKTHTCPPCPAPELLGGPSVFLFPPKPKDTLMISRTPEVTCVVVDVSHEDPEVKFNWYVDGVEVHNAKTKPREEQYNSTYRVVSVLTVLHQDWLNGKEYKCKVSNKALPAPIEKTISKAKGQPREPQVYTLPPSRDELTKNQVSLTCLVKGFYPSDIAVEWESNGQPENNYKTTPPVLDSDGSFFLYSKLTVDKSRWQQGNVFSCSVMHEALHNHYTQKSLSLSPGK
binder,measurement,setting,value
"{CH2CO}-[dY]PSYHTNVVASLKRC (thioether N-15; also: homodimer: two peptides condensed via C-terminal Cys carboxyl with linking unit bearing palmitic acid, also called Dimeric peptide) [Homodimer of MuSK7 with an introduced palmitoyl group (MuSK7-pal)]",Kd,[1],8.8 nM
same,Kd,[2],2 nM
